Experiment [1] deals with T1, human IL-17RB protein (recombinant, R&D systems) (human).
T1 construct: Bought protein; also called hIL17RB
T1 sequence (Q9NRM6 whole entry, looked up): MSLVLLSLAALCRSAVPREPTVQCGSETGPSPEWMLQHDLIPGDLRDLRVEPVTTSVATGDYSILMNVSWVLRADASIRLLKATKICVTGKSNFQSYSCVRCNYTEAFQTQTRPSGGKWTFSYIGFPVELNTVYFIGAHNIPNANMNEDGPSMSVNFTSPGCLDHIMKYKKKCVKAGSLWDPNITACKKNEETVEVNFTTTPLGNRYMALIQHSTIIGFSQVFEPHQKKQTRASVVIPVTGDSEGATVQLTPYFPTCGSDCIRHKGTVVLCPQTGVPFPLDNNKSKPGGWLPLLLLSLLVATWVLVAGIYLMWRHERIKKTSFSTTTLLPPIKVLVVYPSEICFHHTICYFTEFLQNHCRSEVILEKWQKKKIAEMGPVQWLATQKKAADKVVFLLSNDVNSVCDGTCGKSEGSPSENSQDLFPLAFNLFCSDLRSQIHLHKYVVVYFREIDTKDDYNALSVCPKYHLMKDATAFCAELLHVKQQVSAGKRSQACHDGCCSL
Nature of the experiment: ELISA, coated receptor; SM17 at 0.4 µg/mL; well 2.

Experiment [2] deals with T2, human IL-17 receptor subunit A (human, UniProt Q96F46 33-320).
T2 construct: also called IL17RA; hIL17RA
The experiment in a line: ELISA, coated receptor; SM17 at 0.4 µg/mL; well 2. (An ELISA detects its analyte on a solid surface through an enzyme-linked reagent.)

The target of experiment [3] is T3, human IL-17 receptor subunit C (human, UniProt Q8NAC3-2 21-467, limits assumed).
T3 construct: also called IL17RC; hIL17RC
T3 sequence (looked up): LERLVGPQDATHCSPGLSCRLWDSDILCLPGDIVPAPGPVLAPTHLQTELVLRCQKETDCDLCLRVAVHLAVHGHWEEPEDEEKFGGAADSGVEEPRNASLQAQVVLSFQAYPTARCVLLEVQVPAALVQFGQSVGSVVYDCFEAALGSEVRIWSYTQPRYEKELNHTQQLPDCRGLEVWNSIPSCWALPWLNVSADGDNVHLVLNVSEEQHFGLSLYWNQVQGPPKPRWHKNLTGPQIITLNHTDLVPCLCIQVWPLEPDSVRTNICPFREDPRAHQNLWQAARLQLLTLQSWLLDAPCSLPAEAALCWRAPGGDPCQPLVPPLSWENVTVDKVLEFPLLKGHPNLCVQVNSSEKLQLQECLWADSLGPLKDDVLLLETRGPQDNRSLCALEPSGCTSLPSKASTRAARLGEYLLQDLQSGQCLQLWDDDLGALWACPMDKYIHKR
Nature of the experiment: ELISA, coated receptor; SM17 at 0.4 µg/mL; well 2.

The target of experiment [4] is T4, human IL-17 receptor subunit D (human, UniProt Q8NFM7 28-299, limits assumed).
T4 construct: also called IL17RD; hIL 17RD
T4 sequence (looked up): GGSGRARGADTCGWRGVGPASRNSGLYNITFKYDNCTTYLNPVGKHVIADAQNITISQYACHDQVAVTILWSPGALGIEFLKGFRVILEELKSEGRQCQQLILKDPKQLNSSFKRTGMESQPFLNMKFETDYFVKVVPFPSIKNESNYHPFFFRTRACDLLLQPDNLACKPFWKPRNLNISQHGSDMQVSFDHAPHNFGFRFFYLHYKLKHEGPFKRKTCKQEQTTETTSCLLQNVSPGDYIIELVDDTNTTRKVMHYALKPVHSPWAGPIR
Nature of the experiment: ELISA, coated receptor; SM17 at 0.4 µg/mL; well 2.

Experiment [5] concerns the target T5, human IL-17 receptor subunit E (human, UniProt Q8NFR9 24-454, limits assumed).
T5 construct: also called hIL17RE
T5 sequence (looked up): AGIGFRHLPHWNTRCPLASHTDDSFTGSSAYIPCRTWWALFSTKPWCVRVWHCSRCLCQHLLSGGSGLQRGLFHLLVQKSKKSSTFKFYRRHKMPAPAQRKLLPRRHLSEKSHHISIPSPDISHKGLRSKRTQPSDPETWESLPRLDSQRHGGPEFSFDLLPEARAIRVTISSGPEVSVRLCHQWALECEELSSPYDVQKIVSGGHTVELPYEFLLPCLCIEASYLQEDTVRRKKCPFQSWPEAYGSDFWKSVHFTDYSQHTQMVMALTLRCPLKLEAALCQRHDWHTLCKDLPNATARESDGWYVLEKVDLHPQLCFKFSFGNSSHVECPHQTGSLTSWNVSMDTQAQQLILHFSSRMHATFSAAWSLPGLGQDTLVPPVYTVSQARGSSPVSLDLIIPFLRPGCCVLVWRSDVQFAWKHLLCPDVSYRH
The experiment in a line: ELISA, coated receptor; SM17 at 0.4 µg/mL; well 2.

Experiment [6] deals with T1, human IL-17RB protein (recombinant, R&D …). Nature of the experiment: ELISA, coated receptor; SM17 at 0.0032 µg/mL; well 1.
Experiment [7] addresses T4, human IL-17 receptor subunit D. The experiment is described as above.
For experiment [8], the target named is T1, human IL-17RB protein (recombinant, R&D …). The experiment in a line: ELISA, coated receptor; SM17 at 0.00064 µg/mL; well 2.
Experiment [9] addresses T2, human IL-17 receptor subunit A. The description is as above.
Experiment [10] deals with T3, human IL-17 receptor subunit C. The description is as above.
The target in experiment [11] is T4, human IL-17 receptor subunit D. Described as above.
The target of experiment [12] is T5, human IL-17 receptor subunit E. Described as above.

B1: SM17 (antibody, human IgG4 S228P, kappa, V domains shown)
VH: QVQLVQSGAEVKKPGASVKVSCKASGYTFISYWMNWVRQAPGQGLEWMGRIDPYDSEIQYNQKFKDRVTMTRDTSISTAYMELSRLRSDDTAVYYCARSGGFDWFAYWGQGTLVTVSS
VL: DIQMTQSPSSLSASVGDRVTITCRASENINSNLAWYQQKPGKAPKLLLYDVTNLADGVPSRFSGSGSGTDYTLTISSLQPEDFATYYCQHFWGPPYTFGGGTKVEIKR
notes: other paragraphs and claim 15 call the same entries VH and VL; also called humanized anti-IL17RB monoclonal antibody
Consider B1, for which the “OD 450 nm Absorption” value came to 1.31 OD450 in experiment [1]; 0.22 OD450 in experiment [2]; 0.18 OD450 in experiment [3]; 0.08 OD450 in experiment [4]; 0.05 OD450 in experiment [5]; 0.16 OD450 in experiment [6]. Also, the “OD 450 nm Absorption” value in experiment [7] was 0.04 OD450; in [8] it was 0.07 OD450; in [9], 0.05 OD450; in experiment [10] it was 0.08 OD450; in experiment [11], 0.02 OD450; in experiment [12], -0.16 OD450.

Source of the values: patent US20240409647A1 (SINOMAB BIOSCIENCE, published 2024).
